These results are taken from patent US20030232052A1 (CALIFORNIA INSTITUTE OF TECHNOLOGY, published 2003).

Like-named read-outs stand apart in the source and are kept apart here.

The target of assay [1] is mutant Htt exon 1 with 103 polyQ repeats fused to EGFP (UniProt P42858). Description: cell-based or functional assay.
Assay [2] has the same target. Put plainly: cell-based or functional assay. This is another data set of the same source.
Assay [3] has as its target T1, mutant Htt exon 1 with 103 polyQ repeats fused to EGFP (UniProt P42858 1-88; P42212 1-238 = GFP).
T1 construct: Expressed in 293 cells; Order of pieces follows 'Htt exon 1-EGFP'; also called PQ103
Description: coimmunoprecipitation from 293 cell lysates with anti-Flag Ab, blot with anti-HD1-17.
Description: The scFvs and IκBα in Triton X-100 cell extracts were precipitated with anti-Flag Ab, and the precipitates were subjected to SDS-PAGE.
Briefly, cells were harvested 24 hours after transfection and lysed by sonication in buffer A (25 mM Hepes, pH 7.4/2.5 mM MgCl₂/50 mM NaCl/1 mM EDTA/1% Triton X-100). After clearing the lysates by centrifugation at 14,300 rpm (Eppendorf microcentrifuge) for 10 minutes at 4° C., 200 μg of each lysate was incubated at 4° C. with rocking for 2 hours with a 40-μl slurry of anti-Flag Ab coupled to protein A beads. The beads were then washed five times in buffer A by using centrifugation at 5,000 rpm, and the complexes were resolved on SDS-PAGE. […] Secondary antibodies conjugated to horseradish peroxidase (HRP) were used to detect the reactive protein bands by enhanced chemiluminescence (Santa Cruz Biotechnology).

With “Flag-tagged MW2 scFv expressed in 293 cells”, in assay [1], the SDS-insoluble aggregated Htt, scanned band at the top of the gel (no scFv: 48.8) (arbitrary units) stood at 54.3 and the increase in mutant Htt-induced TUNEL staining (TUNEL+ cells), 293 cells was found to be 67%.

B1: Flag-tagged MW7 scFv expressed in 293 cells (scFv)
scFv: MDYKDDDDKVAQVKLQESGGGLVQPGGSMKLSCAASGFTFSDAWMDWVRQSPEKGLSGVAEIRSKANNHATYYAESVKGRFTISRDDSKSSVYLQMNSLRAEDTGIYYCIYAGFAYWGQGTTVTVSSGGGGSGGGGSGGGGSDIELTQSPSSLAMSVGQKVTMSCKSSQSLLNSSNQKNYLAWYQQKPGQSPKLLVYFASTRESGVPDRFIGSGSGTDFTLTISSVQAEDLADYFCQQHYSTPWTFGGGTKLEIK
Molecule B1 gave an SDS-insoluble aggregated Htt, scanned band at the top of the gel (no scFv: 48.8) (arbitrary units) in assay [2] of 0.2.

B2: Flag-tagged IκBα (other, UniProt P25963 1-317, looked up, not shown: small tags and cut ends)
chain: MFQAAERPQEWAMEGPRDGLKKERLLDDRHDSGLDSMKDEEYEQMVKELQEIRLEPQEVPRGSEPWKQQLTEDGDSFLHLAIIHEEKALTMEVIRQVKGDLAFLNFQNNLQQTPLHLAVITNQPEIAEALLGAGCDPELRDFRGNTPLHLACEQGCLASVGVLTQSCTTPHLHSILKATNYNGHTCLHLASIHGYLGIVELLVSLGADVNAQEPCNGRTALHLAVDLQNPDLVSLLLKCGADVNRVTYQGYSPYQLTWGRPSTRIQQQLGQLTLENLQMLPESEDEESYDTESEFTEFTEDELPYDDCVFGGQRLTL
notes: Order of pieces follows the name Flag-IκBα; also called Flag-IκBα
With B2, the binding result in assay [3] is “no binding”.
